Measured values as given in the supplement of paper PMC9170038.

Tested on: K4 kissing-loop RNA reporter
Experiment: apparent KD of K4 kissing-loop reporter; higher = weaker reporter binding
Conditions: Eterna round: R107; input ligand: none
Description: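 RNA-MaP round R107: designed RNA switches with theophylline, tryptophan, arginine or FMN aptamers are transcribed on-chip within common flanks. They are titrated with a labelled K4 kissing-loop RNA reporter in RNA-MaP buffer (100 mM Tris pH 7.5, 80 mM KCl, 4 mM MgCl2), without ligand or with the indicated ligand. Median apparent KD per design.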
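Further: bound reporter read as fluorescence of individual clusters on recovered sequencing chips by microscopy, with normalized cluster intensities fitted with a binding model.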

Sequence | apparent KD of K4 kissing-loop reporter [µM]
CCGGACACCUCGGAUACCAGCCUGAGUGAUGUUCAAGCUGAACUCUCUUAAUAGGUCACCGGCCCUUGGCAGCCGCAUCCUAAGC [theeternabot_exclusion_KL_Theo_B_46] | 0.353
GUCAAGGGUGCGGCCGCCACUUCUAGUGAUGUUAGUUUGUCUUCGUUCAACCGGCGUCUGCACGCAAGGACCGGGCACCAGCGAC [theeternabot_exclusion_KL_Trp_B_10] | 0.567
CAGGUGCUGAUGCGGUGGCCGGUGGUCGUGCGAGGACCGGUACGGCCGCCACUCGCAUGAGUGAUGUUCAUGUGUCGUCGUCGUC [whbob_EX_Tryp_A_t2] | 0.188
GACCCAGAAGCACACCUAAAGUUGACAGAUACCAGCGUCGUUUGGCGCCCUUGGCAGCUGGUCAGUGAUGUUGAUAGCUUCGACU [theeternabot_sameState_KL_Theo_A_24] | 0.181
GCCAGUGAUGUUGGCAUUUCGAGCCAUGAAGGAGCGCACGGAAGUGCAGGUAGGUCGCAUGGUACUUAGGAUAUUAUCCUAAGUA [Antearxe] | 0.224
AAGCGUGUCGCGGCCGCCACUCCUGAGUGAUGUUCAGAAAGCAGUUUUUUAUUCAGGAAAAGCGCGAGGACCGGGCGACGCCGAU [theeternabot_sameState_KL_Trp_B_1] | 0.46
AGUGUGCAAAAGCACACUCAGUACAAGGACAAGGAUAUCUACUAAUAGAGAAGGUGUCCUUUCCUUAGUGAUGUUAAGGAGCUGA [Omei KL FMN A SS D v2] | 0.339
AGGGCGGAGUGAUGUUCCGGCUCCCGAUUUAAGGAUAUUGCGUAAACAAGAAGGUAAAGGCGCAGCAAUAUUAUUUCGUAAGGCG [theeternabot_exclusion_KL_FMN_A_23] | 0.0937
AAAUAGAUCAGUCAUCCAGUGAUGUUGGAAGGAGCGUGCGAAAGCACAGGUAGGUCGCCAGAAUAAAAGUGGCUGAUCAAAAUAA | 0.322
UGGACAUGACUCGAUAAGAGUCAAUGAGAUACCAGUGACGAAAGUCACCCUUGGCAGCUCAACUGCCAGUGAUGUUGGUAGUCCU [#SwitchBubble #StaticStem] | 0.742
CCAUUCAUUUACGAUACCAGUCUAAUAUAUUUAAUCAAAACCCUCGCCGAGUGAUGUUCGGACCCUUGGCAGCGUCUGCGACAGG [cyycmullin] | 0.334
GCCGUAGAUUGAAGGAGCGUUCUUCAGCAUACUUGCAGUGAUGUUGCAUUUUACAUGUAAGAACAGGUAGGUCGCAAUCUACGGC | 0.412
ACUGGAAUUGUACUCCAGUGAUGUUGGAGGCAGGAUAUCCAGUAAAGGAGAAGGGCCAUCGCGCUAUUUAGCCGCAGGCGGCUAA [Atrilazaed] | 0.126
UGAUCAACAUCUGAUACCAGUCGCUCGAGUAAUCAACCGUGGCUAGUGAUGUUGGCUUUUGACCCUUGGCAGCAGAAUCGUGUCA [theeternabot_sameState_KL_Theo_B_20] | 0.112
GGACCUCAGUGAUGUUGAGGUAACACUGAUACCAGCGACUUAAUUCGCCCUUGGCAGCAGUCCACCGAGGUAUCUGAUUAGGUCU [#23 K4 Theophylline A Exclusion] | 0.216
UGGAGUUGACGAAAAGUCAACUCCUGAGAUACCAGUGACGAAAGUCACCCUUGGCAGCUCACUGGCAGUGAUGUUGCUAAAUAAA [KL-SSTheo-A2] | 0.122
UGUAAUGGCUGAGCAGCCGUGGUACGAGAUACCAGUGAUUUCGAUCACCCUUGGCAGCUCGGCGUGAGUGAUGUUCACGCUACAC [Theo A SS t12] | 0.203
UGAUACCAGACGGCCGCCACUCCCGUAAGUCAAAGACUUACGAAGAGGGUUUUUCAGUGAUGUUGGAGGACCGGGUCUGGUAUCU [FiskerMod 17 - Jieux - Exclusion - Tryptophan B] | 0.545
ACGUCCGGGUUAAUCGUGGGCGUGGUGGAUACCAGUUCUUUAAUGAACCCUUGGCAGCCACAUGAGUGAUGUUCAUGUGCGAUGA [KL-XTheo-A10 #analogue] | 0.0962
CGCGAGUCCUUUCAGUGAGUGAUGUUUACGCGAGGACCGGUACGGCCGCCACUCGAUGGUAUACCAAGACAUCAGCAGAUUGUCU [theeternabot_exclusion_KL_Trp_A_18] | 0.321
GCGCGUCAUGUCAGCGGUGACACUGUCGAUACCAGCGCCGAAAGGCGCCCUUGGCAGCGACGUGCUGGAGUGAUGUUCCAGCGUG [#2 Exclusion - Theophylline A Attempt #25 (HarryS)] | 0.182

Same assay, conditions: Eterna round: R107; input ligand: theophylline 20 uM

Sequence | apparent KD of K4 kissing-loop reporter [µM]
UCAGUGAUGUUGAACAAAUAAUGGUUCCUAAAGGAUAUCCACAGAUGGAGAAGGUUAGUAGCGGCUCGCACAUCGUAGGACAAAU [theeternabot_exclusion_KL_FMN_A_1] | 0.602
UUAGAUCAAAGAUCAGUCUUAUGGAGGGAACGAGGACCGGUACGGCCGCCACUCGAGUGAUGUUCGAGAACCCUCGUGACAAAUU [AK4 EXC Tryptophan A] | 0.164
ACGCGCGUGCGCUGGAAAGCGCACGCGCGUCGAGGACCGGUACGGCCGCCACUCGCUCGCGCCGAGUGAUGUUCGGCCGGCGAAC [#2 SameState - Tryptophan_A Attempt #2 (HarryS)] | 0.292
UGUACCGAGUCAGGAUAUGAACGACUGACAAAAGUCGGUCGAAUAUCCAGUGAUGUUGGAAAUAAAUCAGAAGGGACUUGGUACU [FmnBS 15 #SwitchBubble #StaticStem] | 0.84
GUUCUGAUGGAAACAUCGGAACAUACUGAUACCAGUAUCGAUAGAUACCCUUGGCAGCAGAAUCAGUAAUAACGAGUGAUGUUCG [Ex Theophylline A K4 2] | 0.273
GAUUCAGUGAUGUUGGAAGGCGAGCGGGAUACCAGCGGAGACUCACGCCCUUGGCAGCCCACAUAUCCCAGGUAGAUAAUAGAUC [Same State - Theophylline A (Freestyle 7)] | 0.16
UGAUACCAGACGGCCGCCACUACACCAGUCAAAGACUGGAUGUGAUGUUUGACCAGUGAUGUUGGUAGGACCGGGUCUGGUAUCU [TrypBX 5 #Palindromic #SwitchBubble #StaticStem] | 0.494
AAAAUAAGCCAGUGAUGUUGGGAUCCAGAUACCAGCGACGAAAGUCGCCCUUGGCAGCUGUGGACGUACAAAAUAAGUACGUCCU | 0.927
UCUCCAGUGAUGUUGGAGACGGAUGAGGAAGGAGCGGGCACGUGCCCAGGUAGGUCGCCUCGAAAGCCCUGUAGCAUCGCGAAAC [Disoribe] | 0.193
AAGGGCGGGACUUUCUCGCCGGAUAGAGAUACCAGCCCAGCAAUGGGCCCUUGGCAGCUCACUGACCUCAGUGAUGUUGAGGUUC [Quintege] | 0.208
AUCGUUGUCUGAGGAUAUCGGUUAUCUGUAGUGAUGUUACAGUAUAUUGAUAUUAUAGUUUCUUUUCGAGAAGGCAGACUACGUA [JR_Nu_ExcFMNB_Sub021] | 0.0654
UCGCGUAAUGGAAGGAGCGGUGCCAGUGAUGUUGGAUACUGCGUGUAUUAGGUCGGAGCGCACCAGGUAGGUCGCCAUUUGGUGG [Tigedies] | 0.271
UUUAAAUAUAGUGAUGUUAUAUAACAAUGACGAGGACCGGUACGGCCGCCACUCGAGAGAGAUAAUGGUCGUUCGAAUCGAACGC [AstrosSSTryA#6] | 0.574
AGAGUUAUGAGAGGAUAUGCGGCUAGUACUCAAAGAGUACUAGCAGCGGAGUGAUGUUCUGCGAAAGCAGAAGGUUCAUAACUCA [#08 K4 FMN B Same State] | 1.11
UGAUACCAGACGGCCGCCACUAGGGCUAGCAAAGCUAGCAAGUGAUGUUUGAGGAGUGAUGUUCCUAGGACCGGGUCUGGUAUCU [TrypBX 1 #Palindromic #SwitchBubble #StaticStem] | 0.0465
AGUAUGUAAUAUGGCAUAUUUAGAACUGAAGGAGCGCCGAAUAAGGCAGGUAGGUCGCGGAAUCAUGAGUGAUGUUCAUGACUAU [KL-SSArg-A26] | 0.126

Sequence | apparent KD of K4 kissing-loop reporter [µM]
CGCCGGAAGGCGGUCGCUCCCACUCCGGAAGGAGCGCCCGGAAGGGCAGGUAGGUCGCCGGAGUGAUGUUCCGGUGGAGGGACCG [#2 Exclusion - Arginine A Attempt #10 (Inspired by Omei)] | 0.111
AACAACUUGUUUGUCGGGUGUUCGCGCGAUACCAGCCGAAUGGAUGGCCCUUGGCAGCGCAGCGAGUGAUGUUCGCCCGCUUGAC [Exclusion Theophylline A GF 24] | 0.529
GGCAUGGUGGCAGGAUAUCCUAAUAGAGUGAUGUUCUAGCCCUCGUAGGCGAAAGCCUACGAGGGCGGAGAAGGGCCACCAUGCC | 0.835
ACCAUCAAAGAUGGCCUCGACACCGCUGAUACCAGAGUGAAAACACUCCCUUGGCAGCAGGUGAGUGAUGUUCACAGUCGAAGGA [Omel KL Theo A SS B v1] | 0.538
UUUAUAUAGUCGGCCGCCACUGGAUUAAUAUUUGUAUAAUCUAGAUCAAAGUGAUGUUUUGAGUCCAGGACCGGGACAUUUGUUA [JR_ExcTryptoB_Sub006] | 0.525
CCGGACACCUCGGAUACCAGCCUGAGUGAUGUUCAAGCUGAACUCUCUUAAUAGGUCACCGGCCCUUGGCAGCCGCAUCCUAAGC [theeternabot_exclusion_KL_Theo_B_46] | 0.31
GUCAAGGGUGCGGCCGCCACUUCUAGUGAUGUUAGUUUGUCUUCGUUCAACCGGCGUCUGCACGCAAGGACCGGGCACCAGCGAC [theeternabot_exclusion_KL_Trp_B_10] | 0.636
CAGGUGCUGAUGCGGUGGCCGGUGGUCGUGCGAGGACCGGUACGGCCGCCACUCGCAUGAGUGAUGUUCAUGUGUCGUCGUCGUC [whbob_EX_Tryp_A_t2] | 0.192
GACCCAGAAGCACACCUAAAGUUGACAGAUACCAGCGUCGUUUGGCGCCCUUGGCAGCUGGUCAGUGAUGUUGAUAGCUUCGACU [theeternabot_sameState_KL_Theo_A_24] | 0.0895
GCCAGUGAUGUUGGCAUUUCGAGCCAUGAAGGAGCGCACGGAAGUGCAGGUAGGUCGCAUGGUACUUAGGAUAUUAUCCUAAGUA [Antearxe] | 0.178
AAGCGUGUCGCGGCCGCCACUCCUGAGUGAUGUUCAGAAAGCAGUUUUUUAUUCAGGAAAAGCGCGAGGACCGGGCGACGCCGAU [theeternabot_sameState_KL_Trp_B_1] | 0.328
AGUGUGCAAAAGCACACUCAGUACAAGGACAAGGAUAUCUACUAAUAGAGAAGGUGUCCUUUCCUUAGUGAUGUUAAGGAGCUGA [Omei KL FMN A SS D v2] | 0.347
AGGGCGGAGUGAUGUUCCGGCUCCCGAUUUAAGGAUAUUGCGUAAACAAGAAGGUAAAGGCGCAGCAAUAUUAUUUCGUAAGGCG [theeternabot_exclusion_KL_FMN_A_23] | 0.111
AAAUAGAUCAGUCAUCCAGUGAUGUUGGAAGGAGCGUGCGAAAGCACAGGUAGGUCGCCAGAAUAAAAGUGGCUGAUCAAAAUAA | 0.467
UGGACAUGACUCGAUAAGAGUCAAUGAGAUACCAGUGACGAAAGUCACCCUUGGCAGCUCAACUGCCAGUGAUGUUGGUAGUCCU [#SwitchBubble #StaticStem] | 0.793
